Source: US20140105889A1 (published 2014)
One block for each binder: values may come before it.

Biological target: T1, human FcγRIIIa(F) (human, UniProt P08637 17-208, limits assumed)
T1 construct: also called FcgRIIIaF; FcγRIIIa allotype F158
Experiment: SPR (Biacore), captured antibody, FcγR analyte; bound amount relative to GpH7-B3/GpL16-k0 x100;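 also: receptor response divided by the antibody amount captured on the chip before comparison with the reference antibody, measured at 25 °C in HBS-EP+ running buffer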
Method: Interaction between each modified antibody and Fcγ receptor prepared in the manner described above was analyzed using the Biacore T100 (GE Healthcare), Biacore T200 (GE Healthcare), Biacore A100 or Biacore 4000. HBS-EP+ (GE Healthcare) was used for the running buffer, and measurements were carried out at 25° C. The chips used were chips in which antigen peptides, Protein A (Thermo Scientific), Protein A/G (Thermo Scientific) or Protein L (ACTIGEN or BioVision) were immobilized on the Series S Sensor Chip CM5 (GE Healthcare) or Series S Sensor Chip CM4 (GE Healthcare) by amine coupling, or chips in which preliminarily biotinylated antigen peptides were allowed to interact and then immobilized on the Series S Sensor Chip SA (certified) (GE Healthcare). The target antibodies were captured on these sensor chips, Fcγ receptor diluted with the running buffer was allowed to interact, followed by measurement of the amount of bound antibody. The amounts bound were compared between antibodies. However, since the amount of Fcγ receptor bound depends on the amount of captured antibody, the values used for comparison were first corrected by dividing the amount of Fcγ receptor bound by the captured amount of each antibody. Through reaction with 10 mM glycine-HCl at pH 1.5, the sensor chips were regenerated by washing off antibody captured on the sensor chips and used repeatedly.
Binding strength was evaluated according to the following method based on the results of analyzing the interaction with each FcγR. […] That value was then further multiplied by 100, and the resulting value was used as an indicator of relative binding activity to each FcγR.

T1 sequence (P08637 other isoform, or with tags, fused parts or gaps limits assumed): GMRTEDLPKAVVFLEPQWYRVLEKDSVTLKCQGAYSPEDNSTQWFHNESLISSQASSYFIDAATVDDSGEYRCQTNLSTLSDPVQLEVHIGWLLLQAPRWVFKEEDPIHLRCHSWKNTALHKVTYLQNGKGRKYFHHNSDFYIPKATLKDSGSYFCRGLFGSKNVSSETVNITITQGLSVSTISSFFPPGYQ

relative binding activity: 1 % of GpH7-B3/GpL16-k0
B1: GpH7-B3/GpL16-k0 with A327R introduced into GpH7-B3 (antibody, human IgG1)
heavy: not shown
light: DIVMTQSPLSLPVTPGEPASISCQASESLVHSNRNTYLHWYLQKPGQSPQLLIYKVSNRFSGVPDRFSGSGSGTDFTLKISRVEAEDVGVYYCSQNTHVPPTFGQGTKVEIE
notes: Anti-glypican-3 human IgG1; constant region B3 (G1d with K439E); Fc variant; also called B3 variant; copies: 2 + 2

relative binding activity: 7 % of GpH7-B3/GpL16-k0
B2: GpH7-B3/GpL16-k0 with P329V introduced into GpH7-B3 (antibody, human IgG1)
heavy: not shown
light: B1 light
notes: as for B1

relative binding activity: 37 % of GpH7-B3/GpL16-k0
B3: GpH7-B3/GpL16-k0 with N325H introduced into GpH7-B3 (antibody, human IgG1)
heavy: not shown
light: B1 light
notes: as for B1

relative binding activity: 0 % of GpH7-B3/GpL16-k0
B4: GpH7-B3/GpL16-k0 with P329L introduced into GpH7-B3 (antibody, human IgG1)
heavy: not shown
light: B1 light
notes: as for B1

relative binding activity: 5 % of GpH7-B3/GpL16-k0
B5: GpH7-B3/GpL16-k0 with A327K introduced into GpH7-B3 (antibody, human IgG1)
heavy: not shown
light: B1 light
notes: as for B1

relative binding activity: 16 % of GpH7-B3/GpL16-k0
B6: GpH7-B3/GpL16-k0 with A327F introduced into GpH7-B3 (antibody, human IgG1)
heavy: not shown
light: B1 light
notes: as for B1

relative binding activity: 13 % of GpH7-B3/GpL16-k0
B7: GpH7-B3/GpL16-k0 with A327Y introduced into GpH7-B3 (antibody, human IgG1)
heavy: not shown
light: B1 light
notes: as for B1

relative binding activity: 13 % of GpH7-B3/GpL16-k0
B8: GpH7-B3/GpL16-k0 with A327L introduced into GpH7-B3 (antibody, human IgG1)
heavy: not shown
light: B1 light
notes: as for B1

relative binding activity: -1 % of GpH7-B3/GpL16-k0
B9: GpH7-B3/GpL16-k0 with P329Q introduced into GpH7-B3 (antibody, human IgG1)
heavy: not shown
light: B1 light
notes: as for B1

relative binding activity: 0 % of GpH7-B3/GpL16-k0
B10: GpH7-B3/GpL16-k0 with N325P introduced into GpH7-B3 (antibody, human IgG1)
heavy: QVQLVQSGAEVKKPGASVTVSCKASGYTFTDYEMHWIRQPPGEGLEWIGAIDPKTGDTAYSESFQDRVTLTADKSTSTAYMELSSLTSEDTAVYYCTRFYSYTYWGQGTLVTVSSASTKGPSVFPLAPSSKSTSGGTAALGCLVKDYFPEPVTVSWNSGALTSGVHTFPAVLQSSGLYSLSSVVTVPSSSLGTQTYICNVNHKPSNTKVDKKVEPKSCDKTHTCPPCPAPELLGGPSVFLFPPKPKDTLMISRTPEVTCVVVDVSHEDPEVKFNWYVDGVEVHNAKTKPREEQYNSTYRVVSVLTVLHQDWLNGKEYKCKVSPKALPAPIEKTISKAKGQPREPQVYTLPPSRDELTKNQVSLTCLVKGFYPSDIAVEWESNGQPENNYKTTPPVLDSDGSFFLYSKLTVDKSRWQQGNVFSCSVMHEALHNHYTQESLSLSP
light: B1 light
notes: as for B1

relative binding activity: 18 % of GpH7-B3/GpL16-k0
B11: GpH7-B3/GpL16-k0 with A327Q introduced into GpH7-B3 (antibody, human IgG1)
heavy: not shown
light: B1 light
notes: as for B1

relative binding activity: 5 % of GpH7-B3/GpL16-k0
B12: GpH7-B3/GpL16-k0 with N325Y introduced into GpH7-B3 (antibody, human IgG1)
heavy: not shown
light: B1 light
notes: as for B1

relative binding activity: 8 % of GpH7-B3/GpL16-k0
B13: GpH7-B3/GpL16-k0 with L328G introduced into GpH7-B3 (antibody, human IgG1)
heavy: not shown
light: B1 light
notes: as for B1

relative binding activity: 6 % of GpH7-B3/GpL16-k0
B14: GpH7-B3/GpL16-k0 with N325A introduced into GpH7-B3 (antibody, human IgG1)
heavy: not shown
light: B1 light
notes: as for B1

relative binding activity: 10 % of GpH7-B3/GpL16-k0
B15: GpH7-B3/GpL16-k0 with N325T introduced into GpH7-B3 (antibody, human IgG1)
heavy: not shown
light: B1 light
notes: as for B1

relative binding activity: -1 % of GpH7-B3/GpL16-k0
B16: GpH7-B3/GpL16-k0 with N325R introduced into GpH7-B3 (antibody, human IgG1)
heavy: not shown
light: B1 light
notes: as for B1

relative binding activity: 0 % of GpH7-B3/GpL16-k0
B17: GpH7-B3/GpL16-k0 with P329M introduced into GpH7-B3 (antibody, human IgG1)
heavy: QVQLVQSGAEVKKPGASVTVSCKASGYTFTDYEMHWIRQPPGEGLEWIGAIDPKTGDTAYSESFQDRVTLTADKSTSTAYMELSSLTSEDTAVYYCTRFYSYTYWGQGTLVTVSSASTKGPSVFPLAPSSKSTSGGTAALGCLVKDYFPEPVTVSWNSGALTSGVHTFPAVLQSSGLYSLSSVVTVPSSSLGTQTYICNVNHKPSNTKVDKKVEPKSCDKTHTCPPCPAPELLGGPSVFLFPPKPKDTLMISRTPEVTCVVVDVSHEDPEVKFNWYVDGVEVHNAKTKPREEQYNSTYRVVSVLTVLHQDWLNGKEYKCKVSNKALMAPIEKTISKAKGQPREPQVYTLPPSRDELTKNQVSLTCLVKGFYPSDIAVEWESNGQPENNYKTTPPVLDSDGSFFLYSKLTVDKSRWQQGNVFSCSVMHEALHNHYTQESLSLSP
light: B1 light
notes: as for B1

relative binding activity: -1 % of GpH7-B3/GpL16-k0
B18: GpH7-B3/GpL16-k0 with P329K introduced into GpH7-B3 (antibody, human IgG1)
heavy: not shown
light: B1 light
notes: as for B1

relative binding activity: 1 % of GpH7-B3/GpL16-k0
B19: GpH7-B3/GpL16-k0 with N325I introduced into GpH7-B3 (antibody, human IgG1)
heavy: not shown
light: B1 light
notes: as for B1

relative binding activity: 3 % of GpH7-B3/GpL16-k0
B20: GpH7-B3/GpL16-k0 with P329N introduced into GpH7-B3 (antibody, human IgG1)
heavy: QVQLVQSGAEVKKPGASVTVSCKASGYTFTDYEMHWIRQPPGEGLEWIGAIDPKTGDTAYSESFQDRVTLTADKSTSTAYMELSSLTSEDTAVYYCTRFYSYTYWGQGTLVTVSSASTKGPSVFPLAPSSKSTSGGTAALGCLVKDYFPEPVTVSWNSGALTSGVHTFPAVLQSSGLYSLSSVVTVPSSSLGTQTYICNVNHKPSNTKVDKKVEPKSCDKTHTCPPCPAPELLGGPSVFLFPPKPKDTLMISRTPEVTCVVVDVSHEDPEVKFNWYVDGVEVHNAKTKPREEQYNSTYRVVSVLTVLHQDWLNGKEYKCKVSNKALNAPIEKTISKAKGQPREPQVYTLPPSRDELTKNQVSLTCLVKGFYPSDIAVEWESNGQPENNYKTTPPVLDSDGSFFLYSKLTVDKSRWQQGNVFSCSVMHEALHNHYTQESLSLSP
light: B1 light
notes: as for B1

relative binding activity: -2 % of GpH7-B3/GpL16-k0
B21: GpH7-B3/GpL16-k0 with N325K introduced into GpH7-B3 (antibody, human IgG1)
heavy: not shown
light: B1 light
notes: as for B1

relative binding activity: 2 % of GpH7-B3/GpL16-k0
B22: GpH7-B3/GpL16-k0 with P329I introduced into GpH7-B3 (antibody, human IgG1)
heavy: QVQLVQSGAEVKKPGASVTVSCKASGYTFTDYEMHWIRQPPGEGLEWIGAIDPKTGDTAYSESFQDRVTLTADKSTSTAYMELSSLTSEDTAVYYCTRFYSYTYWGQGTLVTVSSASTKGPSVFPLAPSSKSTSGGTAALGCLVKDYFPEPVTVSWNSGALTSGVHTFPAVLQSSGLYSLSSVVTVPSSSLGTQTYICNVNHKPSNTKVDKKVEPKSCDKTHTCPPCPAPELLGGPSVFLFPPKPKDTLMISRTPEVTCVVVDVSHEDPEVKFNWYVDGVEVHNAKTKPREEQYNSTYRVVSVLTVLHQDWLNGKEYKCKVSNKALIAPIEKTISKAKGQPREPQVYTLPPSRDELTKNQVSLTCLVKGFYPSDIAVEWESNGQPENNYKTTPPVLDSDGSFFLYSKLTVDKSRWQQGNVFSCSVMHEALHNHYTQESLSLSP
light: B1 light
notes: as for B1

relative binding activity: 0 % of GpH7-B3/GpL16-k0
B23: GpH7-B3/GpL16-k0 with L328K introduced into GpH7-B3 (antibody, human IgG1)
heavy: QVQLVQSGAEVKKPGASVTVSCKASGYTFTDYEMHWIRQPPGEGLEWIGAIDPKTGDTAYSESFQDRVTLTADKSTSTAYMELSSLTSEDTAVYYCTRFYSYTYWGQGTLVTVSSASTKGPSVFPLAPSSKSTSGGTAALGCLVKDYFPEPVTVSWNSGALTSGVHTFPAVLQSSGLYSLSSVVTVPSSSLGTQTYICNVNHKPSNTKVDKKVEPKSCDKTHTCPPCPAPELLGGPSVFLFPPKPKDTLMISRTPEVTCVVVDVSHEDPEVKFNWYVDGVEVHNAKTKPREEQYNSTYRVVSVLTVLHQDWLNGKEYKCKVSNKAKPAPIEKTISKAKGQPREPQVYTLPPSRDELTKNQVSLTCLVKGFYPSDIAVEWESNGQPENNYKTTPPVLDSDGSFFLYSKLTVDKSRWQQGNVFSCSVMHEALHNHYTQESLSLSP
light: B1 light
notes: as for B1

relative binding activity: -2 % of GpH7-B3/GpL16-k0
B24: GpH7-B3/GpL16-k0 with P329R introduced into GpH7-B3 (antibody, human IgG1)
heavy: not shown
light: B1 light
notes: as for B1

relative binding activity: 3 % of GpH7-B3/GpL16-k0
B25: GpH7-B3/GpL16-k0 with L328P introduced into GpH7-B3 (antibody, human IgG1)
heavy: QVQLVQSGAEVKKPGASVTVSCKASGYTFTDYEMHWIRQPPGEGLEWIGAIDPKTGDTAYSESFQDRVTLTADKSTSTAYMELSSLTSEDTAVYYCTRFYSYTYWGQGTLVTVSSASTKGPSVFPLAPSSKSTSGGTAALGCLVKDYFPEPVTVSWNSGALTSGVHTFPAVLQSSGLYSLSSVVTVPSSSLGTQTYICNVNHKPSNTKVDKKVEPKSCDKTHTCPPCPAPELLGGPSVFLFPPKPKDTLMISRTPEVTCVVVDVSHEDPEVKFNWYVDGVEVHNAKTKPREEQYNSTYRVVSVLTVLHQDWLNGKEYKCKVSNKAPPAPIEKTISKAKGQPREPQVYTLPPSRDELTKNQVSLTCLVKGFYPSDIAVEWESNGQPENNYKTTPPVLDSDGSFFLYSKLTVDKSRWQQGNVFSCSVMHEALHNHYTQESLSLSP
light: B1 light
notes: as for B1

relative binding activity: 20 % of GpH7-B3/GpL16-k0
B26: GpH7-B3/GpL16-k0 with A327P introduced into GpH7-B3 (antibody, human IgG1)
heavy: not shown
light: B1 light
notes: as for B1

relative binding activity: 13 % of GpH7-B3/GpL16-k0
B27: GpH7-B3/GpL16-k0 with L328H introduced into GpH7-B3 (antibody, human IgG1)
heavy: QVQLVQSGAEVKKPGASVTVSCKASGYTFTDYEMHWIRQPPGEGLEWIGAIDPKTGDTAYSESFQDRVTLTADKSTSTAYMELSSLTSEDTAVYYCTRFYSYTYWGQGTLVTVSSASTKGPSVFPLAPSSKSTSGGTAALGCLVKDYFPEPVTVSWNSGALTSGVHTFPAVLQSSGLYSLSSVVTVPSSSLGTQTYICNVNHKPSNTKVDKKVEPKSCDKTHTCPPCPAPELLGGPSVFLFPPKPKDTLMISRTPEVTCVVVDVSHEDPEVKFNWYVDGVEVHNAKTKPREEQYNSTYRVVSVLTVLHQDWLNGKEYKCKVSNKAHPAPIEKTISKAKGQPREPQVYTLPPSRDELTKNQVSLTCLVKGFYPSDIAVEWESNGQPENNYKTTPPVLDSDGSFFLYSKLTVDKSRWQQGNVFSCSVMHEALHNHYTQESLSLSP
light: B1 light
notes: as for B1

relative binding activity: 18 % of GpH7-B3/GpL16-k0
B28: GpH7-B3/GpL16-k0 with A327V introduced into GpH7-B3 (antibody, human IgG1)
heavy: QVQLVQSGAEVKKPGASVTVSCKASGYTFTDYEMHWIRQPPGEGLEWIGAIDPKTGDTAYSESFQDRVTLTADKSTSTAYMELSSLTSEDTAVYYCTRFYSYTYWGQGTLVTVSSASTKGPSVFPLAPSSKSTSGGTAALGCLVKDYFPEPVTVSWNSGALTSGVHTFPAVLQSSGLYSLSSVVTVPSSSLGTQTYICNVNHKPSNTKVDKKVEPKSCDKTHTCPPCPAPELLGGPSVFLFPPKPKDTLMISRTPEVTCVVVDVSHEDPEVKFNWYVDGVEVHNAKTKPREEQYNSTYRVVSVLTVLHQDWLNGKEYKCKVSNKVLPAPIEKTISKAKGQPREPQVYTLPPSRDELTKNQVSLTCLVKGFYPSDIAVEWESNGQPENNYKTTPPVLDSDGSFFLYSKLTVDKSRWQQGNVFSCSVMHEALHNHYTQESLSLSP
light: B1 light
notes: as for B1

relative binding activity: -1 % of GpH7-B3/GpL16-k0
B29: GpH7-B3/GpL16-k0 with P329T introduced into GpH7-B3 (antibody, human IgG1)
heavy: not shown
light: B1 light
notes: as for B1

relative binding activity: 1 % of GpH7-B3/GpL16-k0
B30: GpH7-B3/GpL16-k0 with N325G introduced into GpH7-B3 (antibody, human IgG1)
heavy: not shown
light: B1 light
notes: as for B1

relative binding activity: -1 % of GpH7-B3/GpL16-k0
B31: GpH7-B3/GpL16-k0 with L328R introduced into GpH7-B3 (antibody, human IgG1)
heavy: not shown
light: B1 light
notes: as for B1

relative binding activity: 24 % of GpH7-B3/GpL16-k0
B32: GpH7-B3/GpL16-k0 with A327M introduced into GpH7-B3 (antibody, human IgG1)
heavy: not shown
light: B1 light
notes: as for B1

relative binding activity: 2 % of GpH7-B3/GpL16-k0
B33: GpH7-B3/GpL16-k0 with N325V introduced into GpH7-B3 (antibody, human IgG1)
heavy: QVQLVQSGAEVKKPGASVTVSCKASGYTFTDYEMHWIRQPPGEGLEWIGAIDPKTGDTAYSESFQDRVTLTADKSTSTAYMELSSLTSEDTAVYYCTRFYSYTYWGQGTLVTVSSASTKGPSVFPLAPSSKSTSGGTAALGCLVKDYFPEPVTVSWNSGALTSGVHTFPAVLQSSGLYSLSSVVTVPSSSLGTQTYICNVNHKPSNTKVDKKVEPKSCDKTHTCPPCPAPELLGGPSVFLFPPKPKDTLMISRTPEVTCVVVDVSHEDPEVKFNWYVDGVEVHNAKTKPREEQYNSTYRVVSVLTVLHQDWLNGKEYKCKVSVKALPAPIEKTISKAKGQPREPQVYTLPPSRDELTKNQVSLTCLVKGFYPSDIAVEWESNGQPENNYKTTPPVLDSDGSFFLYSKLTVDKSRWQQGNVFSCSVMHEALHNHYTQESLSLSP
light: B1 light
notes: as for B1

relative binding activity: 10 % of GpH7-B3/GpL16-k0
B34: GpH7-B3/GpL16-k0 with A327T introduced into GpH7-B3 (antibody, human IgG1)
heavy: not shown
light: B1 light
notes: as for B1

relative binding activity: 42 % of GpH7-B3/GpL16-k0
B35: GpH7-B3/GpL16-k0 with A327S introduced into GpH7-B3 (antibody, human IgG1)
heavy: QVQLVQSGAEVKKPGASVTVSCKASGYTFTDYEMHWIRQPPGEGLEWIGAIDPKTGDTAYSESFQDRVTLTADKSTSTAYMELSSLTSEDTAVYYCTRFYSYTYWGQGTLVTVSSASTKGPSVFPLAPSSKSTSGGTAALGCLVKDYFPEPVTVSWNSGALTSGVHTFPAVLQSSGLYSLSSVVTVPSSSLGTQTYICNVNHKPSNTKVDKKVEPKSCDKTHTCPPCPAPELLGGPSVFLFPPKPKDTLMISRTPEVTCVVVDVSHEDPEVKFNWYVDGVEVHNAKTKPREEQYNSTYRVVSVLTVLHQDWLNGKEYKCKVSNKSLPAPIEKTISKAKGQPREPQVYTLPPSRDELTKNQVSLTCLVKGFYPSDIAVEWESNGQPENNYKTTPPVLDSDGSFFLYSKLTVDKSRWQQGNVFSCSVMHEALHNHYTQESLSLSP
light: B1 light
notes: as for B1

relative binding activity: -1 % of GpH7-B3/GpL16-k0
B36: GpH7-B3/GpL16-k0 with P329H introduced into GpH7-B3 (antibody, human IgG1)
heavy: not shown
light: B1 light
notes: as for B1

relative binding activity: -1 % of GpH7-B3/GpL16-k0
B37: GpH7-B3/GpL16-k0 with N325F introduced into GpH7-B3 (antibody, human IgG1)
heavy: not shown
light: B1 light
notes: as for B1

relative binding activity: -2 % of GpH7-B3/GpL16-k0
B38: GpH7-B3/GpL16-k0 with N325W introduced into GpH7-B3 (antibody, human IgG1)
heavy: not shown
light: B1 light
notes: as for B1

relative binding activity: 14 % of GpH7-B3/GpL16-k0
B39: GpH7-B3/GpL16-k0 with A327H introduced into GpH7-B3 (antibody, human IgG1)
heavy: not shown
light: B1 light
notes: as for B1

relative binding activity: 74 % of GpH7-B3/GpL16-k0
B40: GpH7-B3/GpL16-k0 with S324K introduced into GpH7-B3 (antibody, human IgG1)
heavy: not shown
light: B1 light
notes: as for B1

relative binding activity: 22 % of GpH7-B3/GpL16-k0
B41: GpH7-B3/GpL16-k0 with L328N introduced into GpH7-B3 (antibody, human IgG1)
heavy: not shown
light: B1 light
notes: as for B1

relative binding activity: 17 % of GpH7-B3/GpL16-k0
B42: GpH7-B3/GpL16-k0 with A327W introduced into GpH7-B3 (antibody, human IgG1)
heavy: not shown
light: B1 light
notes: as for B1

relative binding activity: 0 % of GpH7-B3/GpL16-k0
B43: GpH7-B3/GpL16-k0 with P329F introduced into GpH7-B3 (antibody, human IgG1)
heavy: not shown
light: B1 light
notes: as for B1
